Source: publication PMC7829508, “Binding of Campylobacter jejuni FliW Adjacent to the CsrA RNA-Binding Pockets Modulates CsrA Regulatory Activity” (Frontiers in Microbiology, 2020)
Substitutions are numbered along the chain they refer to. Numbers in names are those of the source.

T1: FliW-His6 (C. jejuni, UniProt Q0P9H9 1-129)
T1 construct: FliW of Campylobacter jejuni, fliW cloned into pET-20b(+) (pET-20b-FliW-His6, Li et al., 2018); also called C. jejuni FliW
T1 sequence (looked up): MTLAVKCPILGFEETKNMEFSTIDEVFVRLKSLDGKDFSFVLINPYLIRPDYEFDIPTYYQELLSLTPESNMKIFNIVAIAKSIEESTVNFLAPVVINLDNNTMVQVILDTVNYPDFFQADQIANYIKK

B1: CsrA-WT-His6 (natural protein, C. jejuni 81-176, UniProt P0DPD4 1-75, looked up)
chain: MLILSRKENESIIIGEGIEIKVVQTGKGYAKIGIEAPKSLMILRKELVQQVKDENLHSVVQNDIKLDDLSKKLIK
notes: CsrA of Campylobacter jejuni, 75 amino acids; csrA cloned into pET-20b(+) (pET-20b-CsrA-His6, Fields et al., 2016); also called CsrA-His6; source: purified as described previously (El Abbar et al., 2019); not shown: His6, C-terminal, kept
B2: CsrA-V51A-His6 (natural protein, C. jejuni 81-176, UniProt P0DPD4 1-75, looked up)
chain: B1 chain with V51A
notes: CsrA of Campylobacter jejuni, 75 amino acids, with V51A; point mutation cloned into pET20b (El Abbar et al., 2019); source: purified as described previously (El Abbar et al., 2019); not shown: His6, C-terminal, kept

Experiments:
FliW-His6 (C. jejuni) = FliW-His6 (C. jejuni) (UniProt Q0P9H9); experiment: SPR; BIAcore T100; FliW-His6 amine-coupled to CM5 chip; CsrA-His6 injected at 0-500 nM, 30 μL/min, 180 s association, 600 s dissociation; 20 mM phosphate buffer, 0.05% Tween 20, pH 7.4; bivalent analyte model, constant of the first binding event (KD1)
FliW-His6 = molecular target: T1, FliW-His6; experiment: as above; conditions: both partners purified

| Molecule | KD of the first ligand binding site (KD1, bivalent analyte model) (FliW-His6 (C. jejuni)) [nM] | KD of the first ligand binding site (KD1, bivalent analyte model) (FliW-His6) [nM] |
| --- | --- | --- |
| CsrA-N55A-His6 (from UniProt P0DPD4 1-75) (natural protein) | 93 |  |
| B1 |  | 9 |
| B2 |  | 52 |
